Source: patent US11040083B2, “Polypeptides comprising vinculin binding sites for the treatment of proliferation and/or adhesion related diseases” (PARIS SCIENCES ET LETTRES—QUARTIER LATIN, priority 2015, dated 2021)

What was measured:
talin H1-H4 = talin H1-H4 (Homo sapiens, UniProt Q9Y490); assay: SEC-MALS; type: binding; details: 20 μM equimolar
Protocol: The purified proteins IpaA 483-633 (A483), IpaA 524-633 (A524) and Talin H1-H4 (TlnH1-H4) were used at 20 μM equimolar concentrations and incubated at 4° C. for one hour in binding buffer (25 mM Tris-HCL pH 7.0, 100 mM NaCl and 1 mM β-Mercaptoethanol). The protein mixtures (200 μL) were analyzed by size-exclusion chromatography (SEC) on a Superdex 200 10/300 GL (GE Healthcare) using a Shimadzu Prominence HPLC. Multi-angle laser light scattering (MALS) was measured with a MiniDAWN TREOS (Wyatt Technology). Refractometry was monitored using an Optilab T-rEX (Wyatt Technology).

[1] = test system: C2.7 mice myoblasts cells; assay: Immunostaining of focal adhesions in transfected cells; type: cell-based; details: cells plated for 16 hours
Protocol: C2.7 mice myoblasts cells were seeded at 2.5×10^4 cells in 5 mm rounded cell culture coverslips. Cells were transfected with 3 μg of pcDNA3.1 NT GFP-A483 plasmid, with 6 μL JetPEI transfection reagent (Polyplus) overnight following manufacturer's recommendations. Control and GFP-A483 transfected cells were fixed (3.7% PFA-PBS), permeabilized (0.1% Triton X-100, Sigma-Aldrich) and incubated with a 1/200 monoclonal m11.5 anti-vinculin antibody (ref. V4505, Sigma-Aldrich). Coverslips were washed and incubated with a 1/200 anti-mouse secondary antibody coupled to Alexa 546 (Jackson Research) and 1/200 Phalloidin A633 (Invitrogen), washed and mounted on slides using Dako mounting medium (Invitrogen). Samples were observed using a confocal microscopy with rotary disc (Roper Scientific®). Peripheral and ventral focal adhesion sizes (vinculin) were separated in three different categories (Small/None, Medium and Large) and the size of their focal adherences scored from three independent experiments. The focal adhesion size's distributions between the control and GFP-A483 transfected cells were compared using a Pearson's Chi-squared test.

C2.7 myoblastic cells = assay: Plating on fibronectin-coated PDMS membranes of different stiffness; type: cell-based; details: substrate stiffness 1.5 kPa and 15 kPa
Protocol: As previously observed, A483 induced the formation of large adhesion structures in C2.7 cells (FIG. 20A). While A483 transfectants induced a spectacular 5.6-fold increase in the number of adherent cells after 60 seconds of incubation, this increase was reduced to 1.3-fold when adhesion was tested after 30 min. These findings were quantified by measuring the resistance to shear stress of cells under flow as a function of the incubation time with the substrate in microfluidic chambers (FIG. 20B). Thus, through its direct binding via IpaA VBS3/TBS or indirect unveiling of binding sites on vinculin “supra-activated”, A483 may “by-pass” mechanosensing normally associated with the initial steps of cell adhesions' formation. While we cannot rule out the possibility that A483 induces an original ex-nihilo adhesion structure, our current results rather argue that it allows the bypassing of actomyosin-dependent mechanosensing steps that would lead to vinculin supra-activation at high actomyosin contraction forces. To further test this, we plated the C2.7 myoblastic cells on various fibronectin-coated PDMS membranes showing different stiffness. As expected, at low substrate stiffness (1.5 kPa), control cells remained spread and isolated, whereas at high substrate stiffness (15 kPa), cells differentiated into myotubes (FIG. 20C).

[2] = test system: C2.7 mice myoblasts cells; assay: Cell adhesion kinetics on fibronectin-coated surfaces; type: cell-based
Protocol: C2.7 mice myoblasts cells were seeded at 2.5×10^5 cells in a 10 cm cell culture petri dish (TPP). Cells were transfected with 15 μg of pcDNA3.1 NT GFP-A483 plasmid, with 45 μL JetPEI transfection reagent (Polyplus) overnight following manufacturer's recommendations. Control and transfected cells were detached and washed in a large volume of DMEM/Hepes (ref. 21063-045, Life Technologies) with 0.2% BSA and 50 ng/mL LPA (ref. L7260, Sigma-Aldrich) without FCS. Some 15,000 control/IpaA cells per well were seeded (DMEM/BSA/LPA, no FCS) in 24-well plates added with 5 mm rounded coverslips coated with 25 μg/mL fibronectin and blocked with 2% BSA-PBS 1×. Plates containing cells were centrifuged at 1000 g for 2 minutes, incubated at 37° C. and fixed (3.7% PFA-PBS) at different time points. Coverslips were stained with an anti-vinculin antibody+Phalloidin as described before (Immunostaining) or with a solution containing 1/200 DAPI (1 mg/mL) for number-of-cells adhesion tests. All coverslips were washed and mounted on slides using Dako mounting medium (Invitrogen) and observed using a confocal microscopy with rotary discs (Roper Scientific®).
To confirm this latter result at the scale of a whole cell population, we performed assays where cells, resuspended by trypsinization, were allowed to adhere for define amounts of time on Fn-coated substrates before washing. Then the number of cells that remained attached to the substrate was measured.

melanocytes = assay: Time lapse cell migration; type: cell-based; details: 6 movies per sample, preliminary
MEF cells = assay: TIRF microscopy of focal adhesion markers after ROCK inhibitor Y-27632; type: cell-based; details: Paxillin, Vinculin, VASP; after Rho-kinase inhibitor Y-27632; preliminary
Description: FIG. 21 is a set of images showing that IpaA prevents the disassembly of focal adhesions induced by the relaxation of the actomyosin contraction. MEF cells were transfected with focal adhesion proteins Paxillin-Cherry (PAX), Vinculin-Cherry (VIN) or VASP-Cherry (VASP). CTRL: single transfection; A483: cells were co-transfected with GFP-A483. The intensity of focal adhesion proteins (visualized as white dots) is shown at the indicated time points in seconds after the addition of the ROCK inhibitor Y-27632 by TIRF microscopy. A483 prevents the destabilization of FA markers induced by the ROCK inhibitor observed in control cells.
In preliminary experiments, we have analyzed the role of actomyosin contraction on the recruitment of FA markers linked to the supra-activation of vinculin, by treating cells with the Rho-kinase inhibitor Y-27632. The disappearance of markers from FAs was analyzed following in real-time using total internal reflection (TIRF) microscopy. […] Strikingly, VASP, a marker of mature FAs, was also stabilized by A483, while previous studies had shown that this FA marker was not stabilized by active vinculin, deficient for head-tail intra-molecular interaction.

Chain of talin H1-H4 (Q9Y490 482-636): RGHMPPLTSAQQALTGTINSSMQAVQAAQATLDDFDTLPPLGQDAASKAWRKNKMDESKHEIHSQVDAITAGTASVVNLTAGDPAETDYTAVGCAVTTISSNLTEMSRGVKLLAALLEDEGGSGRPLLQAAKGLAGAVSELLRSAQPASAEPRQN

Row | Molecule | complex formation with talin H1-H4 in solution (talin H1-H4) | focal adhesions (FA) in transfected cells [1] | myotube formation (C2.7 myoblastic cells) | increase in the number of adherent cells ([2]; adhesion tested after 30 min) [fold] | increase in the number of adherent cells ([2]; after 60 seconds of incubation) [fold] | effect on cell migration / motility (melanocytes) | stabilization of FA markers (MEF cells)
1 | A524: IpaA 524-633, containing only IpaA VBS1 and VBS2 (protein, listed as Shigella flexneri, A524 / IpaA (524-633), IpaA 524-633, containing only IpaA VBS1 and VBS2) KSKDITKSTTEHRINNKLKVTDANIRNYVTETNADTIDKNHAIYEKAKEVSSALSKVLSKIDDTSAELLTDDISDLKNNNDITAENNNIYKAAKDVTTSLSKVLKNINKD | absence of complex formation | not observed |  |  |  |  | 
2 | A483: amino acids 483 to 633 of SEQ ID NO: 1 (IpaA), containing IpaA VBS1, VBS2 and VBS3 (protein, listed as Shigella flexneri, A483 / IpaA (483-633)) GDTYLTRETIFEASKKVTNSLSNLISLIGTKSGTQERELQEKSKDITKSTTEHRINNKLKVTDANIRNYVTETNADTIDKNHAIYEKAKEVSSALSKVLSKIDDTSAELLTDDISDLKNNNDITAENNNIYKAAKDVTTSLSKVLKNINKD | compact globular complex corresponding to one talin H1-H4 dimer bound to one A483 molecule |  | formed myotubes not only at high, but also at low substrate stiffness | 1.3 | 5.6 | strong effect on cell migration | stabilization of all FA markers studied
